Results reported in patent US20210371867A1 (SYSMEX, published 2021).

Biological target: T1, human CD80/B7-1 protein (His tag) (human, UniProt P33681 35-242)
T1 construct: Recombinant His-tagged protein used as the antigen solution; also called antigen
T1 sequence (looked up): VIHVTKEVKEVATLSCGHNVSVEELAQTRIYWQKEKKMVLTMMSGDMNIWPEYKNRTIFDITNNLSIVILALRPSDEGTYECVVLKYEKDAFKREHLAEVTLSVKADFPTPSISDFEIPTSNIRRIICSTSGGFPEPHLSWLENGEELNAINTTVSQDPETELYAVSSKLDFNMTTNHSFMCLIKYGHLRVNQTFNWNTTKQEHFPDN
Assay: sandwich chemiluminescence ELISA; capture rabbit anti-CD80 IgG on plate, antigen 0.005-20 ng/mL, binder as detection antibody at 200 ng/mL
Experimental: Rabbit anti-CD80 antibody (IgG) was diluted with PBS to 1 μg/mL. The resulting antibody solution was added to a 96-well black plate at 100 μL/well and allowed to stand overnight at 4° C. to immobilize the antibody in the wells. After removing the antibody solution from the plate, Buffer I′ (100 mM HEPES, 1% BSA, 0.05% ProClin (trademark), 1 mM MgCl₂, 0.1 mM ZnCl₂, pH 8.0) was added at 300 μL/well and allowed to stand overnight at 4° C. for blocking. After removing the solution from the plate, a human CD80/B7-1 protein (His tag) solution (0.005, 0.020, 0.078, 0.313, 1.25, 5.0 or 20 ng/mL) was added as an antigen solution at 100 μL/well. The plate was shaken at room temperature at 500 rpm for 1 hour to perform an antigen-antibody reaction. The plate was washed three times with a HISCL washing solution (Sysmex Corporation), and then each ALP fusion antibody (200 ng/mL) of Example 1 diluted with Buffer I′ was added at 100 μL/well. The plate was shaken at room temperature at 500 rpm for 1 hour to perform an antigen-antibody reaction. After washing the plate with a HISCL washing solution three times, a HISCL R5 reagent (Sysmex Corporation) as a solution of a chemiluminescent substrate of ALP was added at 100 μL/well, and luminescence intensity was immediately measured with FLUOstar OPTIMA (BMG LABTECH).

B1: ALP fusion antibody of Example 1 (GS1 linker): Fab of rabbit anti-CD80 antibody, Fd-GS1-BIAPII (Fab)
heavy: QSVEESGGRLVTPGTPLTLTCTASGFSLSNNAVSWVRQAPGEGLEWIGTISSNDNTYYATWAKGRFTISKTSTTVDLKITSPTTEDTATYFCAIYYYGYGYVFNLWGPGTLVTVSSGQPKAPSVFPLAPCCGDTPSSTVTLGCLVKGYLPEPVTVTWNSGTLTNGVRTFPSVRQSSGLYSLSSVVSVTSSSQPVTCNVAHPATNTKVDKTVAPSTCSKPTGGGGSLIPAEEENPAFWNRQAAQALDVAKKLQPIQTAAKNVILFLGDGMGVPTVTATRILKGQMNGKLGPETPLAMDQFPYVALSKTYNVDRQVPDSAGTATAYLCGVKGNYRTIGVSAAARYNQCNTTRGNEVTSVINRAKKAGKAVGVVTTTRVQHASPAGAYAHTVNRNWYSDADLPADAQKNGCQDIAAQLVYNMDIDVILGGGRMYMFPEGTPDPEYPDDASVNGVRKDKQNLVQEWQAKHQGAQYVWNRTALLQAADDSSVTHLMGLFEPADMKYNVQQDHTKDPTLAEMTEAALQVLSRNPRGFYLFVEGGRIDHGHHDGKAYMALTEAIMFDNAIAKANELTSELDTLILVTADHSHVFSFGGYTLRGTSIFGLAPGKALDSKSYTSILYGNGPGYALGGGSRPDVNGSTSEEPSYRQQAAVPLASETHGGEDVAVFARGPQAHLVHGVQEETFVAHIMAFAGCVEPYTDCNLPAPA
light: ELVMTQTPASVSEPVGGTVTINCQASEDIYSSLAWYQQKPGQRPKLLMYYASTLASGVPSRFKGSGSGTEFTLTISDLECADAATYYCQSYYLSSSSRYGNAFGGGTEVVVKGDPVAPTVLIFPPAADQVATGTVTIVCVANKYFPDVTVTWEVDGTTQTTGIENSKTPQNSADCTYNLSSTLTLTSTQYNSHKEYTCKVTQGTTSVVQSFIG
notes: Fab-enzyme fusion; two ALP fusion Fab molecules form a complex by dimer formation of the ALP subunits; also called Fab-GS1-BIAPII; ALP fusion antibody (GS1 linker)
  binding result: binds

B2: ALP fusion antibody of Example 1 (GS3 linker): Fab of rabbit anti-CD80 antibody, Fd-GS3-BIAPII (Fab)
heavy: QSVEESGGRLVTPGTPLTLTCTASGFSLSNNAVSWVRQAPGEGLEWIGTISSNDNTYYATWAKGRFTISKTSTTVDLKITSPTTEDTATYFCAIYYYGYGYVFNLWGPGTLVTVSSGQPKAPSVFPLAPCCGDTPSSTVTLGCLVKGYLPEPVTVTWNSGTLTNGVRTFPSVRQSSGLYSLSSVVSVTSSSQPVTCNVAHPATNTKVDKTVAPSTCSKPTGGGGSGGGGSGGGGSLIPAEEENPAFWNRQAAQALDVAKKLQPIQTAAKNVILFLGDGMGVPTVTATRILKGQMNGKLGPETPLAMDQFPYVALSKTYNVDRQVPDSAGTATAYLCGVKGNYRTIGVSAAARYNQCNTTRGNEVTSVINRAKKAGKAVGVVTTTRVQHASPAGAYAHTVNRNWYSDADLPADAQKNGCQDIAAQLVYNMDIDVILGGGRMYMFPEGTPDPEYPDDASVNGVRKDKQNLVQEWQAKHQGAQYVWNRTALLQAADDSSVTHLMGLFEPADMKYNVQQDHTKDPTLAEMTEAALQVLSRNPRGFYLFVEGGRIDHGHHDGKAYMALTEAIMFDNAIAKANELTSELDTLILVTADHSHVFSFGGYTLRGTSIFGLAPGKALDSKSYTSILYGNGPGYALGGGSRPDVNGSTSEEPSYRQQAAVPLASETHGGEDVAVFARGPQAHLVHGVQEETFVAHIMAFAGCVEPYTDCNLPAPA
light: ELVMTQTPASVSEPVGGTVTINCQASEDIYSSLAWYQQKPGQRPKLLMYYASTLASGVPSRFKGSGSGTEFTLTISDLECADAATYYCQSYYLSSSSRYGNAFGGGTEVVVKGDPVAPTVLIFPPAADQVATGTVTIVCVANKYFPDVTVTWEVDGTTQTTGIENSKTPQNSADCTYNLSSTLTLTSTQYNSHKEYTCKVTQGTTSVVQSFIG
notes: Fab-enzyme fusion, dimer through the ALP subunits
  binding result: binds

B3: ALP fusion antibody of Example 1 (GS2 linker): Fab of rabbit anti-CD80 antibody, Fd-GS2-BIAPII (Fab)
heavy: QSVEESGGRLVTPGTPLTLTCTASGFSLSNNAVSWVRQAPGEGLEWIGTISSNDNTYYATWAKGRFTISKTSTTVDLKITSPTTEDTATYFCAIYYYGYGYVFNLWGPGTLVTVSSGQPKAPSVFPLAPCCGDTPSSTVTLGCLVKGYLPEPVTVTWNSGTLTNGVRTFPSVRQSSGLYSLSSVVSVTSSSQPVTCNVAHPATNTKVDKTVAPSTCSKPTGGGGSGGGGSLIPAEEENPAFWNRQAAQALDVAKKLQPIQTAAKNVILFLGDGMGVPTVTATRILKGQMNGKLGPETPLAMDQFPYVALSKTYNVDRQVPDSAGTATAYLCGVKGNYRTIGVSAAARYNQCNTTRGNEVTSVINRAKKAGKAVGVVTTTRVQHASPAGAYAHTVNRNWYSDADLPADAQKNGCQDIAAQLVYNMDIDVILGGGRMYMFPEGTPDPEYPDDASVNGVRKDKQNLVQEWQAKHQGAQYVWNRTALLQAADDSSVTHLMGLFEPADMKYNVQQDHTKDPTLAEMTEAALQVLSRNPRGFYLFVEGGRIDHGHHDGKAYMALTEAIMFDNAIAKANELTSELDTLILVTADHSHVFSFGGYTLRGTSIFGLAPGKALDSKSYTSILYGNGPGYALGGGSRPDVNGSTSEEPSYRQQAAVPLASETHGGEDVAVFARGPQAHLVHGVQEETFVAHIMAFAGCVEPYTDCNLPAPA
light: ELVMTQTPASVSEPVGGTVTINCQASEDIYSSLAWYQQKPGQRPKLLMYYASTLASGVPSRFKGSGSGTEFTLTISDLECADAATYYCQSYYLSSSSRYGNAFGGGTEVVVKGDPVAPTVLIFPPAADQVATGTVTIVCVANKYFPDVTVTWEVDGTTQTTGIENSKTPQNSADCTYNLSSTLTLTSTQYNSHKEYTCKVTQGTTSVVQSFIG
notes: as for B2
  binding result: binds

B4: ALP fusion antibody of Example 1 (EK1 linker): Fab of rabbit anti-CD80 antibody, Fd-EK1-BIAPII (Fab)
heavy: QSVEESGGRLVTPGTPLTLTCTASGFSLSNNAVSWVRQAPGEGLEWIGTISSNDNTYYATWAKGRFTISKTSTTVDLKITSPTTEDTATYFCAIYYYGYGYVFNLWGPGTLVTVSSGQPKAPSVFPLAPCCGDTPSSTVTLGCLVKGYLPEPVTVTWNSGTLTNGVRTFPSVRQSSGLYSLSSVVSVTSSSQPVTCNVAHPATNTKVDKTVAPSTCSKPTEAAAKLIPAEEENPAFWNRQAAQALDVAKKLQPIQTAAKNVILFLGDGMGVPTVTATRILKGQMNGKLGPETPLAMDQFPYVALSKTYNVDRQVPDSAGTATAYLCGVKGNYRTIGVSAAARYNQCNTTRGNEVTSVINRAKKAGKAVGVVTTTRVQHASPAGAYAHTVNRNWYSDADLPADAQKNGCQDIAAQLVYNMDIDVILGGGRMYMFPEGTPDPEYPDDASVNGVRKDKQNLVQEWQAKHQGAQYVWNRTALLQAADDSSVTHLMGLFEPADMKYNVQQDHTKDPTLAEMTEAALQVLSRNPRGFYLFVEGGRIDHGHHDGKAYMALTEAIMFDNAIAKANELTSELDTLILVTADHSHVFSFGGYTLRGTSIFGLAPGKALDSKSYTSILYGNGPGYALGGGSRPDVNGSTSEEPSYRQQAAVPLASETHGGEDVAVFARGPQAHLVHGVQEETFVAHIMAFAGCVEPYTDCNLPAPA
light: ELVMTQTPASVSEPVGGTVTINCQASEDIYSSLAWYQQKPGQRPKLLMYYASTLASGVPSRFKGSGSGTEFTLTISDLECADAATYYCQSYYLSSSSRYGNAFGGGTEVVVKGDPVAPTVLIFPPAADQVATGTVTIVCVANKYFPDVTVTWEVDGTTQTTGIENSKTPQNSADCTYNLSSTLTLTSTQYNSHKEYTCKVTQGTTSVVQSFIG
notes: as for B2
  binding result: binds

B5: ALP fusion antibody of Example 1 (EK2 linker): Fab of rabbit anti-CD80 antibody, Fd-EK2-BIAPII (Fab)
heavy: QSVEESGGRLVTPGTPLTLTCTASGFSLSNNAVSWVRQAPGEGLEWIGTISSNDNTYYATWAKGRFTISKTSTTVDLKITSPTTEDTATYFCAIYYYGYGYVFNLWGPGTLVTVSSGQPKAPSVFPLAPCCGDTPSSTVTLGCLVKGYLPEPVTVTWNSGTLTNGVRTFPSVRQSSGLYSLSSVVSVTSSSQPVTCNVAHPATNTKVDKTVAPSTCSKPTEAAAKEAAAKLIPAEEENPAFWNRQAAQALDVAKKLQPIQTAAKNVILFLGDGMGVPTVTATRILKGQMNGKLGPETPLAMDQFPYVALSKTYNVDRQVPDSAGTATAYLCGVKGNYRTIGVSAAARYNQCNTTRGNEVTSVINRAKKAGKAVGVVTTTRVQHASPAGAYAHTVNRNWYSDADLPADAQKNGCQDIAAQLVYNMDIDVILGGGRMYMFPEGTPDPEYPDDASVNGVRKDKQNLVQEWQAKHQGAQYVWNRTALLQAADDSSVTHLMGLFEPADMKYNVQQDHTKDPTLAEMTEAALQVLSRNPRGFYLFVEGGRIDHGHHDGKAYMALTEAIMFDNAIAKANELTSELDTLILVTADHSHVFSFGGYTLRGTSIFGLAPGKALDSKSYTSILYGNGPGYALGGGSRPDVNGSTSEEPSYRQQAAVPLASETHGGEDVAVFARGPQAHLVHGVQEETFVAHIMAFAGCVEPYTDCNLPAPA
light: ELVMTQTPASVSEPVGGTVTINCQASEDIYSSLAWYQQKPGQRPKLLMYYASTLASGVPSRFKGSGSGTEFTLTISDLECADAATYYCQSYYLSSSSRYGNAFGGGTEVVVKGDPVAPTVLIFPPAADQVATGTVTIVCVANKYFPDVTVTWEVDGTTQTTGIENSKTPQNSADCTYNLSSTLTLTSTQYNSHKEYTCKVTQGTTSVVQSFIG
notes: as for B2
  binding result: binds
